For 2 substances, stoichiometry N and density of microtubule-attached beads (beads × mm^−2) results are on record in publication PMC2872917.

Test [1] deals with Dam1 complex (S. cerevisiae) (UniProt P53267). Description: velocity sedimentation.
For a further test, the target named is microtubules (UniProt Q6B856). Put plainly: bead-microtubule-binding assay.

In test [1], “Dam1 complex (from UniProt P53267 1-343; Q12248 1-94)” displayed a stoichiometry N of 2. Substance “Ndc80 complex (from UniProt P40460 1-691; P33895 1-451)” registered a density of microtubule-attached beads (beads × mm^−2) with microtubules of 7800.

As usually defined, the stoichiometry N is the number of molecules, sites or subunits per partner or assembly.
